{"source": "paper PMC10897489", "biological_target": "GST-NSP3 1–181 (SARS-CoV-2)", "assay": "ITC"}
{"substance": "His-FXR1 215–360 (from UniProt A0A0F7L1S3 215-360) (domain or fragment)", "values": [{"measurement": "Kd", "value": "2300 to 2900", "unit": "nM"}]}
